Experiments:
recombinant Hsp90α [1] = target: T1, recombinant Hsp90α (human, UniProt P07900 1-732); experiment: FP; AMPPNP
recombinant Hsp90α [2] = target: T1, recombinant Hsp90α; experiment: FP; ADP

Kd (recombinant Hsp90α [1]): 240 nM | Kd (recombinant Hsp90α [2]): 810 nM
B1: Tsc1-D-His6 labeled with Texas Red maleimide (domain or fragment)
chain: DGCSDSMVGHNEEASGHNGETKTPRPSSARGSSGSRGGGGSSSSSSELSTPEKPPHQRAGPFSSRWETTMGEASASIPTTVGSLPSSKSFLGMKARELFRNKSESQCDEDGMTSSLSESLKTELGKDLGVEAKIPLNLDGPHPSPPTPDSVGQLHIMDYNETHHEHS
modifications: Texas Red C2 maleimide label, 0.8 labels/Tsc1-D

From publication PMC5730846 (2017)
